In the supplement of paper PMC10567573:

B1: SOAT1 (parent)
chain: VYYIFERLCAPLFRNIKQEPFSAR
B2: MATN2 (parent)
chain: VNVPGSFVCQCYSGYALAEDGKRC
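Note: lentivirally expressed fusions sorted by FACS into six bins by GFP to DsRed ratio, PSI derived from sequencing read proportions per bin multiplied by bin number.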

Variants of: B1
Assay: protein stability index of a GFP-peptide fusion (GPS, HEK-293T) (PSI 1-6); higher = more stable
Settings: c terminus: a fixed tail appended
In the case of F21D, the protein stability index is reported as 2.17.
F21P showed a protein stability index of 2.26.
Variant F21W has a protein stability index of 3.02.
In the case of F21T, the protein stability index is reported as 2.7.
Variant F21Q has a protein stability index of 1.77.
Work on F21C yielded a protein stability index of 1.99.
With F21M the protein stability index was 2.64.
F21N gave a protein stability index of 1.36.
F21H showed a protein stability index of 1.59.
For F21R, the protein stability index was 2.74.
Work on F21L yielded a protein stability index of 1.7.
In the case of F21Y, the protein stability index is reported as 2.9.
Work on F21V yielded a protein stability index of 2.97.
In the case of F21E, the protein stability index is reported as 2.39.
With F21I the protein stability index was 2.94.
F21S showed a protein stability index of 2.13.
In the case of F21A, the protein stability index is reported as 2.07.
S22N showed a protein stability index of 2.3.
Variant S22H has a protein stability index of 1.92.
In the case of S22A, the protein stability index is reported as 2.65.
For S22T, the protein stability index was 2.36.
S22K showed a protein stability index of 1.96.
For S22Y, the protein stability index was 3.56.
In the case of S22D, the protein stability index is reported as 2.88.
In the case of S22I, the protein stability index is reported as 3.73.
S22W showed a protein stability index of 2.91.
S22E gave a protein stability index of 2.61.
For S22F, the protein stability index was 2.66.
In the case of S22M, the protein stability index is reported as 3.1.
For S22Q, the protein stability index was 1.46.
With S22G the protein stability index was 2.8.
Variant R24I has a protein stability index of 2.73.
Work on R24M yielded a protein stability index of 2.64.
With R24E the protein stability index was 3.4.
In the case of R24A, the protein stability index is reported as 2.27.
R24H showed a protein stability index of 2.48.
R24N showed a protein stability index of 4.22.
With R24Y the protein stability index was 1.88.
With R24K the protein stability index was 2.42.
Variant R24L has a protein stability index of 2.79.
R24D gave a protein stability index of 3.13.
With R24V the protein stability index was 2.57.
In the case of A23N, the protein stability index is reported as 2.53.
In the case of A23L, the protein stability index is reported as 2.55.
A23C showed a protein stability index of 1.65.
For A23W, the protein stability index was 3.89.
With A23Y the protein stability index was 3.86.
With A23I the protein stability index was 2.1.
In the case of A23Q, the protein stability index is reported as 2.02.
Variant A23P has a protein stability index of 2.21.
Work on A23S yielded a protein stability index of 2.8.
In the case of A23R, the protein stability index is reported as 1.9.
A23K showed a protein stability index of 2.41.
With A23T the protein stability index was 1.42.
For Q18K, the protein stability index was 1.37.
For Q18N, the protein stability index was 1.52.
Work on Q18F yielded a protein stability index of 1.28.
Q18M showed a protein stability index of 2.92.
Variant Q18G has a protein stability index of 2.28.
Q18T gave a protein stability index of 1.91.
Work on Q18V yielded a protein stability index of 1.88.
Q18Y gave a protein stability index of 3.88.
With Q18H the protein stability index was 3.42.
With Q18D the protein stability index was 2.9.
In the case of Q18C, the protein stability index is reported as 2.19.
Q18W showed a protein stability index of 2.6.
Q18P showed a protein stability index of 2.92.
Work on Q18R yielded a protein stability index of 2.62.
In the case of K17E, the protein stability index is reported as 3.03.
With K17I the protein stability index was 1.47.
Variant K17F has a protein stability index of 1.74.
In the case of K17D, the protein stability index is reported as 1.76.
K17Y showed a protein stability index of 2.06.
Variant K17V has a protein stability index of 3.1.
With K17M the protein stability index was 2.78.
K17Q gave a protein stability index of 2.52.
In the case of K17R, the protein stability index is reported as 2.04.
For K17N, the protein stability index was 2.87.
In the case of E19N, the protein stability index is reported as 1.47.
With E19Y the protein stability index was 2.41.
E19G showed a protein stability index of 2.86.
With E19F the protein stability index was 1.58.
In the case of E19T, the protein stability index is reported as 2.27.
E19Q showed a protein stability index of 3.17.
Work on E19K yielded a protein stability index of 2.4.
E19A gave a protein stability index of 2.12.
For E19I, the protein stability index was 2.6.
In the case of E19M, the protein stability index is reported as 1.88.
With E19W the protein stability index was 2.4.
For E19P, the protein stability index was 2.76.
E19H gave a protein stability index of 1.93.
With E19D the protein stability index was 2.08.
In the case of E19L, the protein stability index is reported as 1.52.
For E19C, the protein stability index was 3.4.
P20Q gave a protein stability index of 2.44.
In the case of P20Y, the protein stability index is reported as 4.1.
Variant P20K has a protein stability index of 1.88.
P20A showed a protein stability index of 2.34.
In the case of P20L, the protein stability index is reported as 2.48.
Work on P20I yielded a protein stability index of 2.71.
In the case of P20V, the protein stability index is reported as 2.6.
In the case of P20G, the protein stability index is reported as 2.71.
Work on P20M yielded a protein stability index of 2.49.
Work on P20N yielded a protein stability index of 2.53.
P20S showed a protein stability index of 1.36.
With P20T the protein stability index was 3.49.
For P20W, the protein stability index was 2.79.

Variants of: B2
Assay: as above
Settings: c terminus: a fixed tail appended
C24T showed a protein stability index of 2.13.
C24M gave a protein stability index of 2.06.
P4S showed a protein stability index of 1.34.
In the case of P4I, the protein stability index is reported as 1.04.
Work on P4F yielded a protein stability index of 1.36.
P4M gave a protein stability index of 2.1.
Work on D20S yielded a protein stability index of 2.02.
Variant D20V has a protein stability index of 1.87.
D20G showed a protein stability index of 1.48.
With D20E the protein stability index was 1.85.
Variant R23V has a protein stability index of 2.41.
R23C gave a protein stability index of 2.74.
With R23W the protein stability index was 1.64.
C11A gave a protein stability index of 3.12.
For C11D, the protein stability index was 4.08.
In the case of F7W, the protein stability index is reported as 2.48.
For F7E, the protein stability index was 2.94.
Work on F7K yielded a protein stability index of 2.98.
In the case of N2I, the protein stability index is reported as 1.75.
Work on N2F yielded a protein stability index of 2.64.
In the case of N2K, the protein stability index is reported as 1.38.
Work on C9H yielded a protein stability index of 2.95.
For C9L, the protein stability index was 2.05.
Variant C9P has a protein stability index of 3.06.
C9Y showed a protein stability index of 2.2.
With V8H the protein stability index was 2.34.
V3S gave a protein stability index of 2.16.
For Y12F, the protein stability index was 2.54.
With L17P the protein stability index was 2.46.
Work on L17G yielded a protein stability index of 2.04.
For L17S, the protein stability index was 1.57.
In the case of L17V, the protein stability index is reported as 2.3.
Variant Y15L has a protein stability index of 2.19.
Y15F gave a protein stability index of 2.38.
G14H showed a protein stability index of 2.37.
Work on G14E yielded a protein stability index of 2.91.
For G14Y, the protein stability index was 1.86.
G14W gave a protein stability index of 1.93.
Variant G14D has a protein stability index of 1.95.
For S13V, the protein stability index was 1.32.
Variant S13C has a protein stability index of 3.25.
S13Q showed a protein stability index of 1.5.
For S13Y, the protein stability index was 1.9.
Variant S13L has a protein stability index of 2.52.
For A16S, the protein stability index was 1.84.
For A16V, the protein stability index was 1.62.
Work on A18M yielded a protein stability index of 1.34.
A18L showed a protein stability index of 2.32.
A18R showed a protein stability index of 2.38.
Work on S6R yielded a protein stability index of 3.39.
For Q10V, the protein stability index was 2.08.
In the case of Q10L, the protein stability index is reported as 2.46.
Variant V1T has a protein stability index of 2.36.
V1D gave a protein stability index of 2.6.
Work on V1G yielded a protein stability index of 2.6.
V1F showed a protein stability index of 3.08.
V1R showed a protein stability index of 1.37.
With G21Y the protein stability index was 2.18.
Work on K22H yielded a protein stability index of 2.68.
K22E gave a protein stability index of 2.03.
